Measured values from patent WO2019054460A1 (dated 2019).
Where a chain is given by its changes, count along the chain named.

B1: h25H4-4F9v1 (antibody, V domains shown)
VH: EVQLVQSGPEVVKPGATVKISCKASGYSFTGYFMNWVKQAQGKSLESIGRNNPYNGDSIYNQKFKGKATLTVDKSTNTAYMELSSLRSEDTAVYYCARLMIFDAYYAMDYWGQGTTVTVSS
VL: DIQMTQSTSSLSASLGDRVTITCRASQDIRNYLNWYQQKPGKTVKLLIYYTSRLHSGVPSRFSGSGSGTDYTLTISSLQQEDIATYFCQQDSKHPWTFGQGTKLEIK
B2: h25H4-4F9v2 (antibody, V domains shown)
VH: B1 VH with P9A, V12K, Q41P, S44G, K67R, K74T, N77D
VL: B1 VL
B3: h25H4-4F9v3 (antibody, V domains shown)
VH: B1 VH with P9A, V12K, Q41P, S44G, K67R, K74T, N77D
VL: B1 VL with T8P, L15V, T43A, Q80P
B4: h25H4-4F9v4 (antibody, V domains shown)
VH: EVQLVQSGAEVKKPGATVKISCKVSGYSFTGYFMNWVQQAPGKGLESIGRNNPYNGDSIYNEKFQGRVTITADTSTDTAYMELSSLRSEDTAVYYCARLMIFDAYYAMDYWGQGTTVTVSS
VL: B1 VL with T8P, L15V, T43A, Q80P
B5: h25H4-4F9v5 (antibody, V domains shown)
VH: B4 VH
VL: B1 VL with T8P, L15V, R24Q, T43A, Y71F, L73F, Q80P, F87Y
B6: h25H4-4F9v6 (antibody, V domains shown)
VH: B4 VH with S28T, I48M, N61A
VL: B1 VL with T8P, L15V, R24Q, T43A, Y71F, L73F, Q80P, F87Y
B7: h25H4-4F9v8 (antibody, V domains shown)
VH: B4 VH with S28T, S47W, I48M, N61A
VL: DIQMTQSPSSLSASVGDRVTITCQASQDIRNYLNWYQQKPGKAPKLLIYYTSRLETGVPSRFSGSGSGTDFTFTISSLQPEDIATYYCQQDSKHPWTFGQGTKLEIK
B8: h85H7-2B11v1 (antibody, V domains shown)
VH: EVQLVQSGPEVVKPGASVKMSCKASGYSFSGYFMNWVKQAHGQSLEWIGRINPYNGDTFYNQKFKGKATLTVDKSTSTTYMELSSLRSEDTALYYCARLGIYDVYHYVMENWGQGTTVTVSS
VL: B1 VL with H94N
B9: h85H7-2B11v2 (antibody, V domains shown)
VH: B8 VH with E1Q, P9A, V12K, H41P, S44G, K67R, K74T
VL: B1 VL with H94N
B10: h85H7-2B11v3 (antibody, V domains shown)
VH: B8 VH with E1Q, P9A, V12K, H41P, S44G, K67R, K74T
VL: B1 VL with T8P, L15V, T43A, Q80P, H94N
B11: 25H4-4F9 antibody (antibody, V domains shown)
VH: B1 VH with V5Q, V11L, T17S, A40S, T76S, Y80H, S84R, R87T, T91S, T116S
VL: B1 VL with S7T, T22S, G41D, K42G, T72S, S77N, Q79E, Q100G
B12: 85H7-2B11 antibody (antibody, V domains shown)
VH: B8 VH with V5Q, V11L, A40S, Q43K, T76S, Y80H, S84R, R87T, T91S, T117S
VL: B1 VL with S7T, T22S, G41D, K42G, T72S, S77N, Q79E, H94N, Q100G
B13: 33H4-1G3 antibody (antibody, V domains shown)
VH: EVQLQQSGPELVKPGASVKMSCKASGYSFSGYFMNWVKQSHGKSLEWIGRINPYNGDTLYNQKFKGKATLTVDKSSNTIYMELRSLTSEDSALYYCARLGIYDVYHYVMENWGQGTSVTVSS
VL: B1 VL with S7T, T22S, G41D, K42G, T72S, S77N, Q79E, H94N, Q100G

These binders were tested against T1, human RAMP2 co-expressed with human CRLR on CHO-K1 cells (hCR2-CHOK1) (human, UniProt O60895 43-175; Q16602 23-461) (assay: Cell ELISA on fixed hCR2-CHOK1 cells, 1/10 serial dilution from 67 nM, anti-human IgG Fc-HRP, GraphPad Prism 7).
T1 construct: whole, on cells; The antibodies are directed to RAMP2; also called hCRLR / hRAMP2-expressing CHO-K1 cells; membrane surface RAMP2 protein
T1 sequence (O60895 43-175, chain 1 of 2): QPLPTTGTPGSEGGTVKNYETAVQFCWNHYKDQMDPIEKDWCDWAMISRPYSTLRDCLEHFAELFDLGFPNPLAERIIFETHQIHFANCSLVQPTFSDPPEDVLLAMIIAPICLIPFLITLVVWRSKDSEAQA
T1 sequence (Q16602 23-461, chain 2 of 2): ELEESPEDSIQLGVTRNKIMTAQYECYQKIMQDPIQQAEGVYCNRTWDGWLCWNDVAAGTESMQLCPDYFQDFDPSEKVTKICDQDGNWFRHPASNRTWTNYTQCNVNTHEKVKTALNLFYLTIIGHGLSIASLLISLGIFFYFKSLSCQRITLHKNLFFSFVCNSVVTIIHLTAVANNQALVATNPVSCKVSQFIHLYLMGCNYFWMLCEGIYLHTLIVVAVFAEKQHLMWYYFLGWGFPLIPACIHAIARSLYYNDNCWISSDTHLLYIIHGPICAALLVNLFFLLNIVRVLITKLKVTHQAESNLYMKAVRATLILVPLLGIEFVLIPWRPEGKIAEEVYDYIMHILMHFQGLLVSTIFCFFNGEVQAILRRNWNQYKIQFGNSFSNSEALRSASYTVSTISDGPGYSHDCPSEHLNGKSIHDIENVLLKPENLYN

Row | Binder | EC50 [pM]
1 | B1 | 730
2 | B2 | 1050
3 | B3 | 830
4 | B4 | 1830
5 | B5 | 2320
6 | B6 | 3190
7 | B7 | 3030
8 | B8 | 180
9 | B9 | 240
10 | B10 | 230

Each binder was assayed against RAMP2 expressed on the cell surface of HUVEC (human umbilical vein endothelial cells) (human, UniProt O60895 43-175) (assay: cell-based or functional assay).
RAMP2 expressed on the cell surface of HUVEC (human umbilical vein endothelial cells), sequence (O60895 43-175): as the sequence (O60895 43-175, chain 1 of 2) above

Row | Binder | HUVEC growth inhibition rate (IC50) [pM]
11 | B1 | 16000
12 | B2 | 10900
13 | B8 | 5100
14 | B9 | 9500
15 | B10 | 1500

The binders below were run against T1, human RAMP2 co-expressed with human … (assay: cell-based or functional assay).

Row | Binder | IC50 values for cAMP inhibition [pM]
16 | B11 | 150
17 | B12 | 30
18 | B13 | 45
19 | B1 | 170
20 | B2 | 140
21 | B3 | 260
22 | B4 | 170
23 | B5 | 500
24 | B6 | 1350
25 | B7 | 1070
26 | B8 | 70
27 | B9 | 110
28 | B10 | 80

What follows are binders tested against T1, human RAMP2 co-expressed with human … (assay: Cell ELISA on fixed hCR2-CHOK1 cells, 1/2 serial dilution from 67.5 nM, GraphPad Prism 7).

Row | Binder | EC50 [pM]
29 | B11 | 400
30 | B12 | 140
31 | B13 | 300

Each binder was assayed against RAMP2 expressed on the cell surface of HUVEC (human umbilical vein endothelial cells) (human) (UniProt O60895) (assay: cell-based or functional assay).
RAMP2 expressed on the cell surface of HUVEC (human umbilical vein endothelial cells) (human), sequence (O60895 43-175): as the sequence (O60895 43-175, chain 1 of 2) above

Row | Binder | HUVEC proliferation upon AM addition, 10 nM antibody (OD450, % of no antibody) [%] | IC50 values for inhibition of HUVEC proliferation [pM]
32 | B11 | 30 | 1200
33 | B12 | 30 | 800
34 | B13 | 30 | 1600
